Results reported in doi:10.1101/2019.12.16.876623 (bioRxiv, 2019).

T1: His-MBP-Cdc5 T238D (S. cerevisiae, UniProt P32562 1-705, T238D)
T1 sequence (looked up): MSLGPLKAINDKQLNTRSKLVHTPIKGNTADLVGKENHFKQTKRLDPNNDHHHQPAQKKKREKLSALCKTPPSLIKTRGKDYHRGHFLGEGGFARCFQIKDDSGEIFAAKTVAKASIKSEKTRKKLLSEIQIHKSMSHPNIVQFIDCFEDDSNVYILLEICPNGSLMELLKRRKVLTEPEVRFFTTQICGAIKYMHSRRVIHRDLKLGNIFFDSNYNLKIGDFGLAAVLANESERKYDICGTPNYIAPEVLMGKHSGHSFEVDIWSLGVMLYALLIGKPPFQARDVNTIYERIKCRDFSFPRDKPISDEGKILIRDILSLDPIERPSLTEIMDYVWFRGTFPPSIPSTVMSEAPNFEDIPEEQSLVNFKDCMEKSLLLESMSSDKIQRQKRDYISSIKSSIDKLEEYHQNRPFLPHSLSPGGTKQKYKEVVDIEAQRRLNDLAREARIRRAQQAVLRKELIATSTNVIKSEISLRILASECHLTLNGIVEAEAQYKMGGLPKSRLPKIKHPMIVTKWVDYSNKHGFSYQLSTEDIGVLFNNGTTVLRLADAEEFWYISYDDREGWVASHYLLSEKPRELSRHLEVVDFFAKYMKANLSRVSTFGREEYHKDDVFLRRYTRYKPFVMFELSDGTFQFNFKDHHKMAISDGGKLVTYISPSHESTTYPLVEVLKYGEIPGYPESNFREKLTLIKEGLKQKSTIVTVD

B1: Exo1-Flag (recombinant, untreated) (natural protein, yeast, UniProt P39875 1-702, looked up)
chain: MGIQGLLPQLKPIQNPVSLRRYEGEVLAIDGYAWLHRAACSCAYELAMGKPTDKYLQFFIKRFSLLKTFKVEPYLVFDGDAIPVKKSTESKRRDKRKENKAIAERLWACGEKKNAMDYFQKCVDITPEMAKCIICYCKLNGIRYIVAPFEADSQMVYLEQKNIVQGIISEDSDLLVFGCRRLITKLNDYGECLEICRDNFIKLPKKFPLGSLTNEEIITMVCLSGCDYTNGIPKVGLITAMKLVRRFNTIERIILSIQREGKLMIPDTYINEYEAAVLAFQFQRVFCPIRKKIVSLNEIPLYLKDTESKRKRLYACIGFVIHRETQKKQIVHFDDDIDHHLHLKIAQGDLNPYDFHQPLANREHKLQLASKSNIEFGKTNTTNSEAKVKPIESFFQKMTKLDHNPKVANNIHSLRQAEDKLTMAIKRRKLSNANVVQETLKDTRSKFFNKPSMTVVENFKEKGDSIQDFKEDTNSQSLEEPVSESQLSTQIPSSFITTNLEDDDNLSEEVSEVVSDIEEDRKNSEGKTIGNEIYNTDDDGDGDTSEDYSETAESRVPTSSTTSFPGSSQRSISGCTKVLQKFRYSSSFSGVNANRQPLFPRHVNQKSRGMVYVNQNRDDDCDDNDGKNQITQRPSLRKSLIGARSQRIVIDMKSVDERKSFNSSPILHEESKKRDIETTKSSQARPAVRSISLLSQFVYKGK
B2: Exo1-Flag (recombinant, treated with lambda phosphatase) (natural protein, yeast, UniProt P39875 1-702, looked up)
chain: B1 chain
modifications: dephosphorylated with lambda phosphatase
B3: Exo1-Flag (recombinant, treated with CDK1-cyclin B) (natural protein, yeast, UniProt P39875 1-702, looked up)
chain: B1 chain
modifications: phosphorylated in vitro with CDK1-cyclin B; sites not stated

These binders were tested against T1, His-MBP-Cdc5 T238D (assay: pull-down).

binding result | Binder
binds | B1
binds | B2
binds | B3
